Reference: article PMC9710872

Molecular target: SARS-CoV-2 spike (S) protein, unlabelled (ACROBiosystems) (SARS-CoV-2) (UniProt P0DTC2)
Experiment: SPR

Substance: recombinant NRP1 (ACROBiosystems), SPR analyte (from UniProt O14786) (natural protein)
- Kd: 89.4 nM
